Results reported in article PMC11430019 (bioRxiv, 2024).

Assays:
[1] = target: HSV-2 gH ectodomain / gL heterodimeric complex (gH_(ecto)/gL) (HSV-2, UniProt P89445;P28278); experiment: cryo-EM structure
[2] = target: HSV-2 gH ectodomain (gH_(ecto)) (HSV-2, UniProt P89445); experiment: cryo-EM structure
Sequence of HSV-2 gH ectodomain (gH_(ecto)) (P89445 19-803): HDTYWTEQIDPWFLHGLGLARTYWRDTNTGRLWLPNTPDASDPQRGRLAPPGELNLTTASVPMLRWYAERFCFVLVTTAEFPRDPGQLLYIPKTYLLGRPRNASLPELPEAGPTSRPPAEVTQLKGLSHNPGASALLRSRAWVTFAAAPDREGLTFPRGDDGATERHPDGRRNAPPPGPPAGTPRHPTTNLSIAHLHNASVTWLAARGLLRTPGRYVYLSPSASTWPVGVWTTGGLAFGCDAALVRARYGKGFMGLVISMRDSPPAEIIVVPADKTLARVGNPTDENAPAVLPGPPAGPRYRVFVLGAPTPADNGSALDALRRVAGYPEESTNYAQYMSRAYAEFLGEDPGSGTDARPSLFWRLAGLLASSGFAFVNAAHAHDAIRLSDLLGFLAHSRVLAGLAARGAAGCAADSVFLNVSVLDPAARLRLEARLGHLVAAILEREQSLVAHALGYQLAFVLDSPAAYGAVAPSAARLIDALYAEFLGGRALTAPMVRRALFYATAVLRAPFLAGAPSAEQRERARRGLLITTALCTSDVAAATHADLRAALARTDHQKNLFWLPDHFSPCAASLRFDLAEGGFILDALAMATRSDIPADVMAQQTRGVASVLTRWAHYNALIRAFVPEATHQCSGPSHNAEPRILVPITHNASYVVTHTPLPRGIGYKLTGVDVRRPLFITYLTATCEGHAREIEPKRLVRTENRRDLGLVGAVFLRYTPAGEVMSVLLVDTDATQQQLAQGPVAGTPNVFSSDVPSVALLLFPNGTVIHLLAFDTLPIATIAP

Sequence of HSV-2 gH ectodomain / gL heterodimeric complex (gH_(ecto)/gL) (P89445 19-803, chain 1 of 2): as the sequence (P89445 19-803) above
Sequence of HSV-2 gH ectodomain / gL heterodimeric complex (gH_(ecto)/gL) (P28278 17-224, chain 2 of 2): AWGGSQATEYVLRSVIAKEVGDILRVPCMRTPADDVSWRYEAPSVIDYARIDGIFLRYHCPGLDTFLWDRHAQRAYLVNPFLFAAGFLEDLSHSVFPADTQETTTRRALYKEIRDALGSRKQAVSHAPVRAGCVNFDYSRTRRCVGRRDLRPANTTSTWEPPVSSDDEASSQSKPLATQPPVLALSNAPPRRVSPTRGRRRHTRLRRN

B1: CHL27 Fab (Fab, V domains shown)
VH: QIQLVQSGPELKKPGETVKISCRASGYTFTDYSMHWVKQAPGKGLQWMGWIDTETGEPTYADDFKGRFAFSLETSAITAYLQINNLKNEDTATYFCARGLSPYWGHGTLVTVSA
VL: NIVMTQSPKSMSMSVGERVTLSCKASENVGSYVSWYQQKPEQSPKLLIYGASIRHTGVPDRFAGSGSATDFTLTISSVQAEDLAAYHCGQTYSSPYTFGGGTKLEIK
binding result [1]: binds
binding result [2]: binds
